From article PMC5959768 (Cell, 2018)

Biological target: Gβ1/Gγ2(C68S) complex (human, UniProt P62873 1-340; P59768 1-71, C68S)
Assay: SEC

Chain of Gβ1/Gγ2(C68S) complex (P62873 whole entry, chain 1 of 2): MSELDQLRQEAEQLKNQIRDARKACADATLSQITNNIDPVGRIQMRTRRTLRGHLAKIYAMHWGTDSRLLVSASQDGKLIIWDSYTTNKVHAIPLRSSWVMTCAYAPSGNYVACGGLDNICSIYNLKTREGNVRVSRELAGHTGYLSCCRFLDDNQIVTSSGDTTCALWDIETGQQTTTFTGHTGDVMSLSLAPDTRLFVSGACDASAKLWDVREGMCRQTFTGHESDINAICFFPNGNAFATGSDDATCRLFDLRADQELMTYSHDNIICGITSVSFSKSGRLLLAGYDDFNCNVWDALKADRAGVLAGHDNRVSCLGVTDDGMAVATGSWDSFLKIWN
Chain of Gβ1/Gγ2(C68S) complex (P59768 whole entry C68S, chain 2 of 2): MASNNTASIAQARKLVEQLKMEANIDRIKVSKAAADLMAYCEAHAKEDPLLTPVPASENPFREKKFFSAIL

B1: Wild type human Gαs (residues 7-380 of the short isoform) (natural protein, UniProt P63092-2 7-380, looked up)
chain: SKTEDQRNEEKAQREANKKIEKQLQKDKQVYRATHRLLLLGAGESGKSTIVKQMRILHVNGFNGDSEKATKVQDIKNNLKEAIETIVAAMSNLVPPVELANPENQFRVDYILSVMNVPDFDFPPEFYEHAKALWEDEGVRACYERSNEYQLIDCAQYFLDKIDVIKQADYVPSDQDLLRCRVLTSGIFETKFQVDKVNFHMFDVGGQRDERRKWIQCFNDVTAIIFVVASSSYNMVIREDNQTNRLQEALNLFKSIWNNRWLRTISVILFLNKQDLLAEKVLAGKSKIEDYFPEFARYTTPEDATPEPGEDPRVTRAKYFIRDEFLRISTASGDGRHYCYPHFTCAVDTENIRRVFNDCRDIIQRMHLRQYELL
binding result: binds
